Results on one protein are retold here after patent US20150329644.

Series [1] addresses T1, GST-NP.d5 (NPAC residues 262-553, dehydrogenase domain).
T1 chain: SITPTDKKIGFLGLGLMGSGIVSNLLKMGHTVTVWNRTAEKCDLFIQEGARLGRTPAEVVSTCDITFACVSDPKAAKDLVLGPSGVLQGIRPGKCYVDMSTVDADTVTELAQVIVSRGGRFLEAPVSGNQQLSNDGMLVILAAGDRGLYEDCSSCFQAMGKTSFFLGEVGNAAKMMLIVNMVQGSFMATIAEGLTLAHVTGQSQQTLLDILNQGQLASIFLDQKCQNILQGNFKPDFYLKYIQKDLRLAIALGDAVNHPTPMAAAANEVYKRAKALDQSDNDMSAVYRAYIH

Series [2] concerns the target T2, GST-NP.d3 (NPAC residues 152-252, linker region).
T2 chain: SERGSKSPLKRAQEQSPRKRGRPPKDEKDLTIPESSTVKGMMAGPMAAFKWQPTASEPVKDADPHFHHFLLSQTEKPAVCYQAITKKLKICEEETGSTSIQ

In series [3] the target is T3, GST-NP.d6 (NPAC with deletion of the linker region, residues 152-252).
T3 chain: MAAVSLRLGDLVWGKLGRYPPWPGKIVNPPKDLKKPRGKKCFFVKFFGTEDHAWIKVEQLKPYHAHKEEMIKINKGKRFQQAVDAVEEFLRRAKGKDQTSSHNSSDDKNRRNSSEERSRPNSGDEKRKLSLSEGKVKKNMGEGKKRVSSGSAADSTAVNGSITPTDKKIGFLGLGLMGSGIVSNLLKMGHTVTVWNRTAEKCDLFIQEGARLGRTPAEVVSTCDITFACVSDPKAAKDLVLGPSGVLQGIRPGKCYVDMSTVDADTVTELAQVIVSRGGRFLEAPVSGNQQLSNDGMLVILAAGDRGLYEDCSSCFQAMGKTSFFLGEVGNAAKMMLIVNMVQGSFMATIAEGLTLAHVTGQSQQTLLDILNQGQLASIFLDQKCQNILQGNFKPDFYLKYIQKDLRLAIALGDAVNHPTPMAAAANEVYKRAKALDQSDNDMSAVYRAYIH

For series [4], the target named is T4, GST-NP.d8 (NPAC residues 188-252).
T4 chain: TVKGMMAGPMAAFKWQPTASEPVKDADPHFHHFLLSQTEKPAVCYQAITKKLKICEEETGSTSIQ

Series [5] deals with T5, GST-NP.d1 (NPAC residues 1-150, PWWP domain).
T5 chain: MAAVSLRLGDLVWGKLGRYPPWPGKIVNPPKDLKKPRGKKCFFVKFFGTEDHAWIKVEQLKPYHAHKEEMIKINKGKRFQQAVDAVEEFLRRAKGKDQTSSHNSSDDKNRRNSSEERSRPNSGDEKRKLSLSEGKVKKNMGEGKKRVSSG

Series [6] concerns the target T6, GST-NP.d4 (NPAC residues 152-553).
T6 chain: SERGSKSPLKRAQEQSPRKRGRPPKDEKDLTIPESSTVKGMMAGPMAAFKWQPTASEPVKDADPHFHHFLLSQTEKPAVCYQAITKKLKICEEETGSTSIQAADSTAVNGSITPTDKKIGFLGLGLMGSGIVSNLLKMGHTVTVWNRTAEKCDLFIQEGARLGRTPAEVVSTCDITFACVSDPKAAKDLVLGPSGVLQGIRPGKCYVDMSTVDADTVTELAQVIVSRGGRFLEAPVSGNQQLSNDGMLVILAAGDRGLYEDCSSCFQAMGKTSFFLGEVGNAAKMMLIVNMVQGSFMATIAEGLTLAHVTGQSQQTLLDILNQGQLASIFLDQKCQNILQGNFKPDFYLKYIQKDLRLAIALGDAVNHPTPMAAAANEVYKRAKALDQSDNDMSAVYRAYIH

The target of series [7] is T7, GST-NP.d9 (NP.d3, NPAC residues 152-252, with deletion of amino acids 214-222).
T7 chain: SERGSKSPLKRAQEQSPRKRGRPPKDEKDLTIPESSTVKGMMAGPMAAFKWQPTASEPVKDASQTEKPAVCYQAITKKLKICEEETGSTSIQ

The target of series [8] is T8, GST-NP.d2 (NPAC residues 1-252).
T8 chain: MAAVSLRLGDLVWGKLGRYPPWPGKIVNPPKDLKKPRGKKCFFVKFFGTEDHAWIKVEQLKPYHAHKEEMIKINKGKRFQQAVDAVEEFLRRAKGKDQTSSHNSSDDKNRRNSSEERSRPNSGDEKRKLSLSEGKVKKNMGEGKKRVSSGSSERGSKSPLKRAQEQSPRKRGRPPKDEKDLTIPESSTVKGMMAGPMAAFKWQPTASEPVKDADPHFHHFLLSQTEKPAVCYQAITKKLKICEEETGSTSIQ

Series [9] deals with T9, GST-NP.d7 (NPAC residues 152-186, containing the AT hook motif).
T9 chain: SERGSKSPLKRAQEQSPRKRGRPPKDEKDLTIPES

B1: Recombinant 6x his tagged full-length LSD2 (protein)
chain: HHHHHHMATPRGRTKKKASFDHSPDSLPLRSSGRQAKKKATETTDEDEDGGSEKKYRKCEKAGCTATCPVCFASASERCAKNGYTSRWYHLSCGEHFCNECFDHYYRSHKDGYDKYTTWKKIWTSNGKTEPSPKAFMADQQLPYWVQCTKPECRKWRQLTKEIQLTPQIAKTYRCGMKPNTAIKPETSDHCSLPEDLRVLEVSNHWWYSMLILPPLLKDSVAAPLLSAYYPDCVGMSPSCTSTNRAAATGNASPGKLEHSKAALSVHVPGMNRYFQPFYQPNECGKALCVRPDVMELDELYEFPEYSRDPTMYLALRNLILALWYTNCKEALTPQKCIPHIIVRGLVRIRCVQEVERILYFMTRKGLINTGVLSVGADQYLLPKDYHNKSVIIIGAGPAGLAAARQLHNFGIKVTVLEAKDRIGGRVWDDKSFKGVTVGRGAQIVNGCINNPVALMCEQLGISMHKFGERCDLIQEGGRITDPTIDKRMDFHFNALLDVVSEWRKDKTQLQDVPLGEKIEEIYKAFIKESGIQFSELEGQVLQFHLSNLEYACGSNLHQVSARSWDHNEFFAQFAGDHTLLTPGYSVIIEKLAEGLDIQLKSPVQCIDYSGDEVQVTTTDGTGYSAQKVLVTVPLALLQKGAIQFNPPLSEKKMKAINSLGAGIIEKIALQFPYRFWDSKVQGADFFGHVPPSASKRGLFAVFYDMDPQKKHSVLMSVIAGEAVASVRTLDDKQVLQQCMATLRELFKEQEVPDPTKYFVTRWSTDPWIQMAYSFVKTGGSGEAYDIIAEDIQGTVFFAGEATNRHFPQTVTGAYLSGVREASKIAAF
Turning to B1, the “LSD2 activity on nucleosome substrates (nucleosome demethylation assay, immunoblot)” value in series [1] is “Neither the PWWP domain (SEQ ID NO: 63) (NP.d1, residues 1-150) nor the dehydrogenase domain (NP.d5, residues 262-553) stimulated LSD2”; in series [2] it was “significantly enhance LSD2 demethylase activity”; in series [3], “deletion of the linker region (residues 152-252) abolishes cofactor activity (NP.d6, lane 10)”; in [5] it was “Neither the PWWP domain (SEQ ID NO: 63) (NP.d1, residues 1-150) nor the dehydrogenase domain (NP.d5, residues 262-553) stimulated LSD2”; in [6], “significantly enhance LSD2 demethylase activity”; in series [8], “significantly enhance LSD2 demethylase activity”. Further, the “LSD2 histone demethylase activity on nucleosomal substrates” value is given as “NP.d8, but not NP.d7 or NP.d9, significantly enhances LSD2 histone demethylase activity on nucleosomal substrates” in series [4]; “NP.d8, but not NP.d7 or NP.d9, significantly enhances LSD2 histone demethylase activity on nucleosomal substrates” in series [7]; “NP.d8, but not NP.d7 or NP.d9, significantly enhances LSD2 histone demethylase activity on nucleosomal substrates” in series [9].
